# Laboratory results taken from US20230257472A1 (JIANGSU HENGRUI MEDICINE, published 2023).
# T1: His-tagged CD70 protein extracellular domain (His-TNC-CD70) (human)
# T1 construct: Expressed in 293 cells; also called human His-TNC-CD70 antigen; human CD70 antigen
# T1 chain: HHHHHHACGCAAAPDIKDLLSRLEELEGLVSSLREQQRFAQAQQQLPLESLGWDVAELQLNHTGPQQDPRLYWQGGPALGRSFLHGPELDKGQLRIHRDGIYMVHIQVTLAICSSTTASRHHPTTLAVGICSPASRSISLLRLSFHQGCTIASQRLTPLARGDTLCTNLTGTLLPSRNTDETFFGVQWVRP
# Target: T1, His-tagged CD70 protein extracellular …
# Test: SPR Biacore T200, antibody captured by anti-human Fc, His-TNC-CD70 in flow, 1:1 model
# Procedure: The affinity of the chimeric and humanized antibodies of the present disclosure for the human CD70 antigen was tested using a Biacore instrument. The procedures are as follows:
# The human Fc capture molecules were covalently coupled to a CM5 biosensor chip (CAT #BR-1005-30, GE) according to the method described in the instructions of the human Fc capture kit (CAT #BR-1008-39, GE) for affinity capture of the antibodies to be tested. Then, a human His-TNC-CD70 antigen (set forth in SEQ ID NO: 1) flowed through the surface of the chip, and the reaction signal was detected in real time using a Biacore T200 instrument to obtain association and dissociation curves. After the dissociation was completed for each cycle, the biochip was washed and regenerated with a regeneration solution configured in the human antibody capture kit (GE). Data were fitted using a 1:1 model.
Binder,Kd,koff,kon
"huB7010 (antibody, human IgG1, kappa, V domains shown, Humanized IgG1) VH: EIQLVQSGSELKKPGASVKVSCKTSGYTFTNYGMNWVRQAPGQGLEWMGWINTYTGEPTYADEFKGRFVFSLETSVSTAYLQISSLKAEDTAVYYCARGDSFTTEILRNWYFDVWGQGTTVTVSS VL: DIQMTQSPSSLSASVGDRVTITCGASENIYGALNWYQQKPGKVPKLLIYGATNLADGVPSRFSGSGSGRDYTLTISSLQPEDVATYYCQNVLSTPWTFGGGTKVEIKR",0.0396 nM,0.000172 s⁻¹,4.36e+06 M⁻¹ s⁻¹
"huB7014 (antibody, human IgG1, kappa, V domains shown, Humanized IgG1) VH: EVQLVQSGSELKKPGASVKVSCKASGYTFTNYGMNWVRQAPGQGLEWMGWINTYTGEPTYADEFKGRFVFSLDTSVSTAYLQISSLKAEDTAVYYCARGDSFTTEILRNWYFDVWGQGTTVTVSS VL: DIQMTQSPSSLSASVGDRVTITCGASENIYGALNWYQQKPGKSPKLLIYGATNLADGVPSRFSGSGSGRDYTLTISSLQPEDVATYYCQNVLSTPWTFGGGTKVEIKR",0.0371 nM,0.000182 s⁻¹,4.92e+06 M⁻¹ s⁻¹
"huB7016 (antibody, human IgG1, kappa, V domains shown, Humanized IgG1) VH: EIQLVQSGSELKKPGASVKVSCKTSGYTFTNYGMNWVRQAPGQGLEWMGWINTYTGEPTYADEFKGRFVFSLETSVSTAYLQISSLKAEDTAVYYCARGDSFTTEILRNWYFDVWGQGTTVTVSS VL: DIQMTQSPSSLSASVGDRVTITCGASENIYGALNWYQQKPGKSPKLLIYGATNLADGVPSRFSGSGSGRDYTLTISSLQPEDVATYYCQNVLSTPWTFGGGTKVEIKR",0.0418 nM,0.000185 s⁻¹,4.43e+06 M⁻¹ s⁻¹
"huB7018 (antibody, human IgG1, kappa, V domains shown, Humanized IgG1) VH: EIQLVQSGSELKKPGASVKVSCKTSGYTFTNYGMNWVRQAPGQGLKWMGWINTYTGEPTYADEFKGRFVFSLETSVSTAYLQINSLKAEDTAVYYCARGDSFTTEILRNWYFDVWGQGTTVTVSS VL: DIQMTQSPSSLSASVGDRVTITCGASENIYGALNWYQQKPGKSPKLLIYGATNLADGVPSRFSGSGSGRDYTLTISSLQPEDVATYYCQNVLSTPWTFGGGTKVEIKR",0.0464 nM,0.000191 s⁻¹,4.12e+06 M⁻¹ s⁻¹

# Now those with a lower Kd, led by results:
Kd,koff,kon,Binder
0.0282 nM,0.000157 s⁻¹,5.58e+06 M⁻¹ s⁻¹,"huB7004 (antibody, human IgG1, kappa, V domains shown, Humanized IgG1) VH: EIQLVQSGSELKKPGASVKVSCKTSGYTFTNYGMNWVRQAPGQGLEWMGWINTYTGEPTYADEFKGRFVFSLETSVSTAYLQISSLKAEDTAVYYCARGDSFTTEILRNWYFDVWGQGTTVTVSS VL: DIQMTQSPSSLSASVGDRVTITCGASENIYGALNWYQQKPGKVPKLLIYGATNLADGVPSRFSGSGSGTDFTLTISSLQPEDVATYYCQNVLSTPWTFGGGTKVEIKR"
0.0347 nM,0.000169 s⁻¹,4.87e+06 M⁻¹ s⁻¹,"huB7008 (antibody, human IgG1, kappa, V domains shown, Humanized IgG1) VH: EVQLVQSGSELKKPGASVKVSCKASGYTFTNYGMNWVRQAPGQGLEWMGWINTYTGEPTYADEFKGRFVFSLDTSVSTAYLQISSLKAEDTAVYYCARGDSFTTEILRNWYFDVWGQGTTVTVSS VL: DIQMTQSPSSLSASVGDRVTITCGASENIYGALNWYQQKPGKVPKLLIYGATNLADGVPSRFSGSGSGRDYTLTISSLQPEDVATYYCQNVLSTPWTFGGGTKVEIKR"
0.0246 nM,0.000158 s⁻¹,6.41e+06 M⁻¹ s⁻¹,"huB7006 (antibody, human IgG1, kappa, V domains shown, Humanized IgG1) VH: EIQLVQSGSELKKPGASVKVSCKTSGYTFTNYGMNWVRQAPGQGLKWMGWINTYTGEPTYADEFKGRFVFSLETSVSTAYLQINSLKAEDTAVYYCARGDSFTTEILRNWYFDVWGQGTTVTVSS VL: DIQMTQSPSSLSASVGDRVTITCGASENIYGALNWYQQKPGKVPKLLIYGATNLADGVPSRFSGSGSGTDFTLTISSLQPEDVATYYCQNVLSTPWTFGGGTKVEIKR"
0.0257 nM,0.000154 s⁻¹,5.99e+06 M⁻¹ s⁻¹,"huB7012 (antibody, human IgG1, kappa, V domains shown, Humanized IgG1) VH: EIQLVQSGSELKKPGASVKVSCKTSGYTFTNYGMNWVRQAPGQGLKWMGWINTYTGEPTYADEFKGRFVFSLETSVSTAYLQINSLKAEDTAVYYCARGDSFTTEILRNWYFDVWGQGTTVTVSS VL: DIQMTQSPSSLSASVGDRVTITCGASENIYGALNWYQQKPGKVPKLLIYGATNLADGVPSRFSGSGSGRDYTLTISSLQPEDVATYYCQNVLSTPWTFGGGTKVEIKR"
